Several values for one entry are separate records, joined by “and”; a condition that tells them apart may be missing. Identical values can stand only once. Like-named read-outs stand apart in the source and are kept apart here.
Tests used:
[1] = molecular target: LINGO-1 ectodomain (free ectodomain made from LINGO-1-Fc by limited proteolysis with chymotrypsin) (Homo sapiens); assay: SEC
[2] = molecular target: LINGO-1 ectodomain (free ectodomain made from LINGO-1-Fc by limited proteolysis with chymotrypsin) (Homo sapiens); assay: SEC-MALS
[3] = molecular target: LINGO-1 ectodomain (free ectodomain made from LINGO-1-Fc by limited proteolysis with chymotrypsin) (Homo sapiens); assay: SEC-MALS; remark: listed apart in the source

LINGO-1 ectodomain (free ectodomain made from LINGO-1-Fc by limited proteolysis with chymotrypsin) (Homo sapiens), sequence (Q96FE5 42-561): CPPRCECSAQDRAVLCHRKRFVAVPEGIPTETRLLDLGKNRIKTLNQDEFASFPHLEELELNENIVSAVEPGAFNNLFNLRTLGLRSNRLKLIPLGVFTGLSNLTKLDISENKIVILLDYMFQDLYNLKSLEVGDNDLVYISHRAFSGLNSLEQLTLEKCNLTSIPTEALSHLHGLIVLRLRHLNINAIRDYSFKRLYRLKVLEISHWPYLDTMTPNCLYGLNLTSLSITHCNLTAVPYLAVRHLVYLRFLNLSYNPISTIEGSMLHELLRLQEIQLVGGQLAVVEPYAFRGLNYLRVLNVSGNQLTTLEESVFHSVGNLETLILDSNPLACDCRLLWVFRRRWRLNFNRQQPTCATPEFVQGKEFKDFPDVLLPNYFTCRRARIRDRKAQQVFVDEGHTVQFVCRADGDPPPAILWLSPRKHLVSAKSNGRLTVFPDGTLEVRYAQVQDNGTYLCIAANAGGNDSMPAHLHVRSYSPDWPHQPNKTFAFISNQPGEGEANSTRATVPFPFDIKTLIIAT

reduction of the concatemer peaks [1] [%] | stoichiometry N (LINGO-1 per mAb) [2] | stoichiometry N (LINGO-1 per mAb) [3] | Substance
50 | – | – | Li81 R18S/R54T mAb (antibody)
25 | – | – | Li81 R18S/S31R mAb (antibody)
– | 2 | 2 and 1 | Li81 R18S/S31R/R54T mAb (antibody)

Source: paper PMC6973334
